Measurements from paper PMC4503813, “The molecular and structural bases for the association of complement C3 mutations with atypical hemolytic uremic syndrome” (Molecular Immunology, 2015).

Key:
C3b_(R592W) (human) [1] = target: C3b_(R592W) (human) (UniProt P01024)
C3b_(R161W) (human) [2] = target: C3b_(R161W) (human) (UniProt P01024)
C3b_(R592W) (human) [3] = target: C3b_(R592W) (human) (UniProt P01024); assay: SPR; Biacore T100, CM5 chip; C3b surface brought to 1500 RU by thioester deposition (FB and FD with Mg2+ to form convertase, then mutant or wt C3 as substrate); sMCP 0.078-5 μM flowed 90 s, 300 s dissociation; 25 °C, 20 μl/min, HBS-EP; steady-state affinity analysis
C3b_(R161W) (human) [4] = target: C3b_(R161W) (human) (UniProt P01024); assay: as above
wild-type C3b (human) [5] = target: wild-type C3b (human) (UniProt P01024); assay: as above
C3b_(I1157T) [6] = target: C3b_(I1157T) (human, UniProt P01024 749-1663; P01024 749-1663, I1157T, C3b state: beta and alpha' chains disulfide-linked. Thioester (Cys1010-Gln1013) opened: hydrolysed in trypsin-generated C3b, or covalently attached to the chip via thioester for MCP SPR. Plasma glycop); assay: SPR; Biacore T100, CM5 chip; C3b immobilised (400 RU, amine coupling); FH 0.07-4.18 μM flowed 180 s, 300 s dissociation; 25 °C, 20 μl/min, HBS-EP; steady-state affinity analysis; settings: both partners purified
C3b_(I1157T) (human, UniProt P01024 749-1663; P01024 749-1663, I1157T, C3b state: beta and alpha' chains disulfide-linked. Thioester (Cys1010-Gln1013) opened: hydrolysed in trypsin-generated C3b, or covalently attached to the chip via thioester for MCP SPR. Plasma glycop), sequence (P01024 749-1663, stated change not applied, chain 1 of 2): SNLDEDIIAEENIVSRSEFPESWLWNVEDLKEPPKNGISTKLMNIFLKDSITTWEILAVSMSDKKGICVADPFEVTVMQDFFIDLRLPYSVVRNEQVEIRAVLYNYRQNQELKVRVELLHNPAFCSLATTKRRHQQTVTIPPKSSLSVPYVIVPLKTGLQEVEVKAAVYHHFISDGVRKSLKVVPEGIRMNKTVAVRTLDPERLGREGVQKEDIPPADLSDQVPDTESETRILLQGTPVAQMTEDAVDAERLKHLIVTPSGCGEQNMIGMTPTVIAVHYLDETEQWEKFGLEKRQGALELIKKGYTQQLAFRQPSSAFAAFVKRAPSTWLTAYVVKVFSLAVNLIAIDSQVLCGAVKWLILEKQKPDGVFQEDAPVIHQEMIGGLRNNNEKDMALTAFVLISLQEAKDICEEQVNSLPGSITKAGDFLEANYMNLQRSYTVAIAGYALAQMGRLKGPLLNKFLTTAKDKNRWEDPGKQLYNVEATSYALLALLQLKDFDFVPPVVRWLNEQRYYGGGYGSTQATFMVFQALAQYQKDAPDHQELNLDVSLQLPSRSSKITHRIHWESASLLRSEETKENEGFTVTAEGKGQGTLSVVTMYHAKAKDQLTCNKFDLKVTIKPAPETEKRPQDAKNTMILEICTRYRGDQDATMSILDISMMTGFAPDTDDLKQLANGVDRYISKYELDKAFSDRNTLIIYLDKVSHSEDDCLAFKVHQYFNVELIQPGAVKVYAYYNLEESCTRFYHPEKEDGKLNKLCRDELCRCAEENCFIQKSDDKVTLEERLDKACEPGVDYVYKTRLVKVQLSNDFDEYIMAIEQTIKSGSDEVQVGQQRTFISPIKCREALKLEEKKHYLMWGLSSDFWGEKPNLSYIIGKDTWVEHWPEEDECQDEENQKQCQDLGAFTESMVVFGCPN
C3b_(I1157T) (human, UniProt P01024 749-1663; P01024 749-1663, I1157T, C3b state: beta and alpha' chains disulfide-linked. Thioester (Cys1010-Gln1013) opened: hydrolysed in trypsin-generated C3b, or covalently attached to the chip via thioester for MCP SPR. Plasma glycop), sequence (P01024 749-1663 I1157T, chain 2 of 2): as the sequence (P01024 749-1663, stated change not applied, chain 1 of 2) above, with I409T counted along it

C3b_(R592W) (human) [7] = target: C3b_(R592W) (human) (UniProt P01024); assay: as above
C3b_(R161W) (human) [8] = target: C3b_(R161W) (human) (UniProt P01024); assay: as above
wild-type C3b (human) [9] = target: wild-type C3b (human) (UniProt P01024); assay: as above
C3b_(I1157T) [10] = target: C3b_(I1157T) (human, UniProt P01024 749-1663; P01024 749-1663, I1157T); assay: SPR; Biacore T100, CM5 chip; C3b surface brought to 1500 RU by thioester deposition (FB and FD with Mg2+ to form convertase, then mutant or wt C3 as substrate); sMCP 0.078-5 μM flowed 90 s, 300 s dissociation; 25 °C, 20 μl/min, HBS-EP; steady-state affinity analysis; settings: both partners purified
C3b_(I1157T) (human, UniProt P01024 749-1663; P01024 749-1663, I1157T), sequence (P01024 749-1663, stated change not applied, chain 1 of 2): as the sequence (P01024 749-1663, stated change not applied, chain 1 of 2) above
C3b_(I1157T) (human, UniProt P01024 749-1663; P01024 749-1663, I1157T), sequence (P01024 749-1663 I1157T, chain 2 of 2): as the sequence (P01024 749-1663, stated change not applied, chain 1 of 2) above, with I409T counted along it

With “soluble recombinant membrane cofactor protein (sMCP) (from UniProt P15529 35-286) (domain or fragment)” the FI-mediated cleavage of C3b with sMCP as cofactor, purified proteins in solution, 0-10 min at 37 °C; percent of C3b cleaved after 10 min (wt almost completely cleaved) (C3b_(R592W) (human) [1]) was 70%, the FI-mediated cleavage of C3b with sMCP as cofactor, purified proteins in solution, 0-10 min at 37 °C; percent of C3b cleaved after 10 min (wt almost completely cleaved) (C3b_(R161W) (human) [2]) was 70% and the Kd (C3b_(R592W) (human) [3]) was 710 nM. For the same molecule, the Kd (C3b_(R161W) (human) [4]) was 930 nM and the Kd (wild-type C3b (human) [5]) was 570 nM.

B1: factor H (natural protein, human, UniProt P08603 19-1231, looked up)
chain: EDCNELPPRRNTEILTGSWSDQTYPEGTQAIYKCRPGYRSLGNVIMVCRKGEWVALNPLRKCQKRPCGHPGDTPFGTFTLTGGNVFEYGVKAVYTCNEGYQLLGEINYRECDTDGWTNDIPICEVVKCLPVTAPENGKIVSSAMEPDREYHFGQAVRFVCNSGYKIEGDEEMHCSDDGFWSKEKPKCVEISCKSPDVINGSPISQKIIYKENERFQYKCNMGYEYSERGDAVCTESGWRPLPSCEEKSCDNPYIPNGDYSPLRIKHRTGDEITYQCRNGFYPATRGNTAKCTSTGWIPAPRCTLKPCDYPDIKHGGLYHENMRRPYFPVAVGKYYSYYCDEHFETPSGSYWDHIHCTQDGWSPAVPCLRKCYFPYLENGYNQNYGRKFVQGKSIDVACHPGYALPKAQTTVTCMENGWSPTPRCIRVKTCSKSSIDIENGFISESQYTYALKEKAKYQCKLGYVTADGETSGSITCGKDGWSAQPTCIKSCDIPVFMNARTKNDFTWFKLNDTLDYECHDGYESNTGSTTGSIVCGYNGWSDLPICYERECELPKIDVHLVPDRKKDQYKVGEVLKFSCKPGFTIVGPNSVQCYHFGLSPDLPICKEQVQSCGPPPELLNGNVKEKTKEEYGHSEVVEYYCNPRFLMKGPNKIQCVDGEWTTLPVCIVEESTCGDIPELEHGWAQLSSPPYYYGDSVEFNCSESFTMIGHRSITCIHGVWTQLPQCVAIDKLKKCKSSNLIILEEHLKNKKEFDHNSNIRYRCRGKEGWIHTVCINGRWDPEVNCSMAQIQLCPPPPQIPNSHNMTTTLNYRDGEKVSVLCQENYLIQEGEEITCKDGRWQSIPLCVEKIPCSQPPQIEHGTINSSRSSQESYAHGTKLSYTCEGGFRISEENETTCYMGKWSSPPQCEGLPCKSPPEISHGVVAHMSDSYQYGEEVTYKCFEGFGIDGPAIAKCLGEKWSHPPSCIKTDCLSLPSFENAIPMGEKKDVYKAGEQVTYTCATYYKMDGASNVTCINSRWTGRPTCRDTSCVNPPTVQNAYIVSRQMSKYPSGERVRYQCRSPYEMFGDEEVMCLNGNWTEPPQCKDSTGKCGPPPPIDNGDITSFPLSVYAPASSVEYQCQNLYQLEGNKRITCRNGQWSEPPKCLHPCVISREIMENYNIALRWTAKQKLYSRTGESVEFVCKRGYRLSSRSHTLRTTCWDGKLEYPTCAKR
notes: complement factor H, human, from plasma; also called FH; CFH
For B1, the Kd (C3b_(I1157T) [6]) was 1420 nM, the Kd (C3b_(R592W) (human) [7]) was 2450 nM and the Kd (C3b_(R161W) (human) [8]) was 2390 nM. For the same molecule, the Kd (wild-type C3b (human) [9]) was 960 nM.

B2: soluble recombinant membrane cofactor protein (sMCP) (domain or fragment)
chain: CEEPPTFEAMELIGKPKPYYEIGERVDYKCKKGYFYIPPLATHTICDRNHTWLPVSDDACYRETCPYIRDPLNGQAVPANGTYEFGYQMHFICNEGYYLIGEEILYCELKGSVAIWSGKPPICEKVLCTPPPKIKNGKHTFSEVEVFEYLDAVTYSCDPAPGPDPFSLIGESTIYCGDNSVWSRAAPECKVVKCRFPVVENGKQISGFGKKFYYKATVMFECDKGFYLDGSDTIVCDSNSTWDPPVPKCLKV
notes: membrane cofactor protein (MCP, CD46), the first four short consensus repeats (SCR1-4); also called CD46; recombinant soluble MCP; source: recombinant; gift from Prof; Susan Lea, Oxford University
B2 showed a Kd (C3b_(I1157T) [10]) of 940 nM.
